# Positions count from the first letter of the chain named. Numbers in names are those of the source.
# T1: EsCas13d, nuclease-dead (Eubacterium siraeum, UniProt B0MS50, R295A;H300A;R849A;H854A)
# T1 sequence: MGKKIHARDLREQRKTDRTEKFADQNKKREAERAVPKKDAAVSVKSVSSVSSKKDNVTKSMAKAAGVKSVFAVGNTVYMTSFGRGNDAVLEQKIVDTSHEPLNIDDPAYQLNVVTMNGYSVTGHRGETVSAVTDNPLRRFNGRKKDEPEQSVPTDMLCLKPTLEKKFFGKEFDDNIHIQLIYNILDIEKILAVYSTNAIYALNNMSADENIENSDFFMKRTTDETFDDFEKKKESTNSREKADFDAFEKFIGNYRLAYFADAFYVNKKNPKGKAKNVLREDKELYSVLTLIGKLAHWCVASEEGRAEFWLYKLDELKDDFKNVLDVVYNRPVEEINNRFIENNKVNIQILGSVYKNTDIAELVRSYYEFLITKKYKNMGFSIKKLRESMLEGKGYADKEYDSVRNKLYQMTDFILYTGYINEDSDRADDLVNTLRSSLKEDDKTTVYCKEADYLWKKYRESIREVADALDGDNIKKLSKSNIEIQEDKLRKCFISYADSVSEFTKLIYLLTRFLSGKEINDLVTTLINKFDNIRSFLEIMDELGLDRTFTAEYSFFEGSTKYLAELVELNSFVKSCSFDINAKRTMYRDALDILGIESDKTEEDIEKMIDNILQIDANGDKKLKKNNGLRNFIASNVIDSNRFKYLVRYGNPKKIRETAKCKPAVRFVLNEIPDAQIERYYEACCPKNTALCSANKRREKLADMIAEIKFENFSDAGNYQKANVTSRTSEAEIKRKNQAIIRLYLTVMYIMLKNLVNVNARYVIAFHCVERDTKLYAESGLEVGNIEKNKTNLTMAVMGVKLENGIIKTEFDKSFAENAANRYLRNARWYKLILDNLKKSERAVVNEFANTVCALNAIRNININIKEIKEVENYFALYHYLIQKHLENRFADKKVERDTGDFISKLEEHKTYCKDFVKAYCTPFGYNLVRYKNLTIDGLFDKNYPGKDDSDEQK
# B1: target 1 insU 3' of 17,insU 3' of 4 (mixed)
# RNA 1: CACCCGUGCAAAAAUGCAGGGGUCUAAAACUGAGCGGAUAACCUCUCUAUGG
# RNA 2: GGGAAUGGAUCCACAUCUACGAAUUCGUACCAUAGUAGAGGUUAUCCGCUUCACCGAGAUCGGAAGAGCACACGU
# B2: target 1 C2U,C6G (mixed)
# RNA 1: B1 RNA 1
# RNA 2: GGGAAUGGAUCCACAUCUACGAAUUCGUACCAUAGAGAGGUUAUCGGCUUACCGAGAUCGGAAGAGCACACGU
# B3: target 1 A18C,C21U (mixed)
# RNA 1: B1 RNA 1
# RNA 2: B2 RNA 2 with C31U, A34C, G46C, U50C
# B4: target 1 insA 3' of 13,insA 3' of 6 (mixed)
# RNA 1: B1 RNA 1
# RNA 2: B1 RNA 2 with U36A, A37G, G38A, A39G, G40A, G48A, C49G, U50C
# B5: target 1 insC 3' of 19,insC 3' of 1 (mixed)
# RNA 1: B1 RNA 1
# RNA 2: B1 RNA 2 with A34C, G35A, U36G, U51C, C52A, A53C
# B6: target 1 C2G,U10C (mixed)
# RNA 1: B1 RNA 1
# RNA 2: B2 RNA 2 with U42C, G46C, U50G
# B7: target 1 C7G,A9G (mixed)
# RNA 1: B1 RNA 1
# RNA 2: B2 RNA 2 with A43G, C45G, G46C, U50C
# B8: target 1 complement block 8-11 (mixed)
# RNA 1: B1 RNA 1
# RNA 2: B2 RNA 2 with U41A, U42A, A43U, U44A, G46C, U50C
# B9: target 1 insC 3' of 11,insA 3' of 4 (mixed)
# RNA 1: B1 RNA 1
# RNA 2: B1 RNA 2 with U36A, A37G, G38A, A39G, G41U, U42C, U50A
# B10: target 1 complement block 18-20 (mixed)
# RNA 1: B1 RNA 1
# RNA 2: B2 RNA 2 with A32U, U33A, A34U, G46C, U50C
# B11: target 1 C2A,U10C (mixed)
# RNA 1: B1 RNA 1
# RNA 2: B2 RNA 2 with U42C, G46C, U50A
# B12: target 1 insC 3' of 19,insU 3' of 7 (mixed)
# RNA 1: B1 RNA 1
# RNA 2: B1 RNA 2 with A34C, G35A, U36G, C47U, G48C, C49G, U50C
# B13: target 1 U19G,C22A (mixed)
# RNA 1: B1 RNA 1
# RNA 2: B2 RNA 2 with C30A, U33G, G46C, U50C
# B14: target 1 insA 3' of 17,insG 3' of 9 (mixed)
# RNA 1: B1 RNA 1
# RNA 2: B1 RNA 2 with U36A, U45G, C46U, G48C, C49G, U50C
# B15: target 1 insU 3' of 6,insU 3' of 5 (mixed)
# RNA 1: B1 RNA 1
# RNA 2: GGGAAUGGAUCCACAUCUACGAAUUCGUACCAUAGAGAGGUUAUCCUGUCUCACCGAGAUCGGAAGAGCACACGU
# B16: target 1 insU 3' of 6,insU 3' of 2 (mixed)
# RNA 1: B1 RNA 1
# RNA 2: B15 RNA 2 with U49C, C50U, U51C, C52U
# B17: target 1 A9G,A16U (mixed)
# RNA 1: B1 RNA 1
# RNA 2: B2 RNA 2 with A36U, A43G, G46C, U50C
# B18: target 1 del14 (mixed)
# RNA 1: B1 RNA 1
# RNA 2: GGGAAUGGAUCCACAUCUACGAAUUCGUACCAUAGAGGGUUAUCCGCUCACCGAGAUCGGAAGAGCACACGU
# B19: target 1 G5C,C6A (mixed)
# RNA 1: B1 RNA 1
# RNA 2: B2 RNA 2 with G46A, G47C, U50C
# B20: target 1 insC 3' of 15,insG 3' of 10 (mixed)
# RNA 1: B1 RNA 1
# RNA 2: B1 RNA 2 with U36A, A37G, G38C, A44G, U45A, C46U, G48C, C49G, U50C
# B21: target 1 G5C,G13A (mixed)
# RNA 1: B1 RNA 1
# RNA 2: B2 RNA 2 with G39A, G46C, G47C, U50C
# B22: target 1 U11A,G17C (mixed)
# RNA 1: B1 RNA 1
# RNA 2: B2 RNA 2 with G35C, U41A, G46C, U50C
# B23: target 1 G5C,C7U (mixed)
# RNA 1: B1 RNA 1
# RNA 2: B2 RNA 2 with C45U, G46C, G47C, U50C
# B24: target 1 C4G,C21U (mixed)
# RNA 1: B1 RNA 1
# RNA 2: B2 RNA 2 with C31U, G46C, C48G, U50C
# B25: target 1 insA 3' of 19,insA 3' of 12 (mixed)
# RNA 1: B1 RNA 1
# RNA 2: B1 RNA 2 with G35A, U36G, U42A, A44U, U45A, C46U, G48C, C49G, U50C
# B26: target 1 C6U,U8C (mixed)
# RNA 1: B1 RNA 1
# RNA 2: B2 RNA 2 with U44C, G46U, U50C
# B27: target 1 U3C,C21U (mixed)
# RNA 1: B1 RNA 1
# RNA 2: B2 RNA 2 with C31U, G46C, U49C, U50C
# B28: target 1 U10C,C22U (mixed)
# RNA 1: B1 RNA 1
# RNA 2: B2 RNA 2 with C30U, U42C, G46C, U50C
# B29: target 1 C4A,U19C (mixed)
# RNA 1: B1 RNA 1
# RNA 2: B2 RNA 2 with U33C, G46C, C48A, U50C
# B30: target 1 del4,del13 (mixed)
# RNA 1: B1 RNA 1
# RNA 2: GGGAAUGGAUCCACAUCUACGAAUUCGUACCAUAGAGAGUUAUCCGUCACCGAGAUCGGAAGAGCACACGU
# B31: target 1 insC 3' of 19,insG 3' of 1 (mixed)
# RNA 1: B1 RNA 1
# RNA 2: B1 RNA 2 with A34C, G35A, U36G, U51C, C52A, A53G
# B32: target 1 insC 3' of 19,insU 3' of 1 (mixed)
# RNA 1: B1 RNA 1
# RNA 2: B1 RNA 2 with A34C, G35A, U36G, U51C, C52A, A53U
# B33: target 1 insA 3' of 15,insG 3' of 8 (mixed)
# RNA 1: B1 RNA 1
# RNA 2: B1 RNA 2 with U36A, A37G, G38A, C46G, G48C, C49G, U50C
# B34: target 1 insC 3' of 19,insA 3' of 2 (mixed)
# RNA 1: B1 RNA 1
# RNA 2: B1 RNA 2 with A34C, G35A, U36G, U51C, C52A
# Molecular target: T1, EsCas13d, nuclease-dead
# Assay: crRNA (strand 1, pre-loaded); Mg2+; 40 mM Tris-HCl pH 7.5, 150 mM NaCl, 6 mM MgCl2, 1 mM DTT, 0.1% Tween-20, 0.2 mg/ml BSA; 25 C; 10 min per concentration, then washed
# Details: tags: His6-TwinStrep-SUMO cleaved; N-terminal SNAP kept (SNAP-Surface 488); label: 3' end held by stalled T7 RNA polymerase
row,Binder,Kd [nM]
1,B1,19.2 ± 2.1
2,B2,7.9 ± 0.3
3,B3,7.48 ± 0.31
4,B4,4.18 ± 0.24
5,B5,26.4 ± 3
6,B6,5.45 ± 0.29
7,B7,14.5 ± 0.8
8,B8,18.2 ± 0.8
9,B9,21.1 ± 2
10,B10,57 ± 7
11,B11,17.8 ± 0.7
12,B12,62 ± 7
13,B13,54 ± 9
14,B14,22.2 ± 2.5
15,B15,14.3 ± 0.6
16,B16,17 ± 1.6
17,B17,82 ± 27

row,Binder,Kd [nM]
1,B18,12.1 ± 0.9
2,B19,11.3 ± 0.8
3,B20,24.6 ± 1.8
4,B21,5.8 ± 0.4
5,B22,~70
6,B23,33 ± 6
7,B24,3.5 ± 0.5
8,B25,54 ± 5
9,B26,15.6 ± 0.5
10,B27,27 ± 7
11,B28,56 ± 8
12,B29,~36
13,B30,16.5 ± 1.4
14,B31,31 ± 4
15,B32,39 ± 8
16,B33,7.9 ± 0.4
17,B34,33.8 ± 3.1

# — publication PMC10786891, “Massively parallel profiling of RNA-targeting CRISPR-Cas13d”
